Source: patent US20060281899A1, “Mutants of biotin binding protein” (priority 2002, published 2006)
Several values for one entry are separate records, joined by “and”; a condition that tells them apart may be missing. Identical values can stand only once. Like-named read-outs stand apart in the source and are kept apart here.

Assays:
[1] = cited from earlier work; for ΔTm: change in Tm upon biotin addition, previously published values; for DSC Tm (+biotin) / DSC Tm(−biotin): previously published (Nordlund 2003; Gonzalez 1999)
[2] = IAsys optical biosensor, affinity of avidin and avidin mutants towards 2-iminobiotin; format: binding
Protocol: (§1) Reversibility of biotin binding was measured for avidin and the mutants with an IAsys optical biosensor (Laitinen, O. H. et al., FEBS Lett 461 (1999), 52-8). Protein samples were allowed to bind to a biotin-aminosilane cuvette in PBS containing 1 M NaCl. After the equilibrium was reached, biotin-containing buffer was added and the dissociation of the proteins was monitored. The affinities of the proteins towards 2-iminobiotin were determined with an IAsys optical biosensor (Marttila, A. T. et al. FEBS Lett 441 (1998), 313-7). Biotin-binding activity of the mutants Avd-ci and Avd-ccci after heat treatment was studied with a microtiter plate assay. Protein samples, 5 μg/ml concentration in PBS, were heated for various time periods at 99.9° C. and then chilled on ice. The samples were transferred to a Nunc Maxisorp-plate and incubated at 37° C. for 2 h. The wells were washed three times with PBS-Tween (0.05% v/v). After that the wells were blocked with PBS containing 1% BSA at 37° C. for 30 minutes and washed again with PBS-Tween. Next, biotinylated alkaline phosphatase (Sigma) in PBS, 1% BSA was added and incubated at 37° C. for one hour. Once again, the wells were washed with PBS-Tween and the PNPP substrate in DEA buffer (1 mg/ml) was applied to the wells. The absorbances at 405 nm were measured after incubation for 45 minutes.

[3] = Microparticle analysis, BF523-biotin binding of protein-coated particles before and after 95° C.; format: physicochemical; conditions: 30 minutes at 95° C., BF523-biotin added after treatment (iv)
Protocol: Before the analysis, 3.22 μm microparticles with COOH-group/0.852 nm2 (Bangs laboratories, Fishers, Ind., USA) were covalently coated with biotin-binding proteins. Microparticles (1*108 pcs) were washed twice with H20 by sequential centrifuging (5000 g; 3 min) and aspiration, and resuspended in 200 μl PB buffer (50 mM NaH2PO4-HCl, pH 3.0). A solution of biotin binding protein (50 μl, 1 mg/ml or 3 mg/ml, 50 mM Na-acetate pH 4.0) was added while vortexing. The suspension was incubated for 1 h (500 rpm; 23° C.). Particles were washed with PB and with MES buffer (50 mM, pH 5.5) and suspended in MES buffer (200 μl). […] After the last wash particles were suspended in 100 μl volume and concentration of particles was determined with Multisizer 3 Coulter Counter (Beckman Coulter, Fullerton, Calif., USA). […]
Microparticles (5*106 pcs) were suspended in 900 μl of assay buffer and aliquoted in […] PCR-tubes (i-v; 180 μl/aliquot). […] The samples were measured with ArcDia TPX PlateReader (ArcDia Ltd.) (Soini, E., Meltola, N. J., Soini, A. E., Soukka, J., Soini, J. T. & Hanninen, P. E. (2000) Biochem. Soc. Trans. 28, 70-74). […]
The fluorescence emission efficiencies of the BF523-biotin conjugate (200 nM) was determined before and after the incubation (30 min) at 95° C. […]

[4] = test system: biotinylated alkaline phosphatase; experiment: Microtiter plate assay, biotin-binding activity after heat treatment at 99.9° C.; format: physicochemical; conditions: 99.9° C. for various time periods
Protocol: as §1, with “After that the wells were blocked with PBS containing 1% BSA at 37° C. for 30 minutes and washed again with PBS-Tween. Next, biotinylated alkaline phosphatase (Sigma) in PBS, 1% BSA was added and incubated at 37° C. for one hour. Once again, the wells were washed with PBS-Tween and the PNPP substrate in DEA buffer (1 mg/ml) was applied to the wells.” left out
Biotin-binding activity of the proteins after heat treatment was studied with a microtiter plate assay (Nordlund, H. R., Laitinen, O. H., Uotila, S. T., Nyholm, T., Hytönen, V. P., Slotte, J. P. & Kulomaa, M. S. (2003) J. Biol. Chem. 278, 2479-2483). […] The absorbencies at 405 nm were measured after incubation for 45 minutes.

[5] = Differential scanning calorimetry of the avidin mutants; format: physicochemical; conditions: for Tm: DSC, 100 mM Na-phosphate buffer pH 7.4
Protocol: In order to study the thermal stability of the purified avidin mutants, they were subjected to analysis by differential scanning calorimetry. A Nano II differential scanning calorimeter (Calorimetric Science Corporation, Provo, Utah) was used. […] The reference cell was filled with the same buffer that the sample proteins were dissolved in (100 mM Na-phosphate buffer pH 7.4). The thermograms were recorded as a function of temperature, between 25 and 130° C. at a temperature scan rate of 55.6° C./h. The baselines were subtracted and the transition midpoints (Tm) of the samples were calculated using proprietary software provided by the instrument manufacturer.

[6] = 2-iminobiotin surface; from Nordlund 2003; read-out: Kd detected from the equilibrium response data; cited from earlier work
[7] = + biotin, difference in Tm compared to wt avidin + biotin
[8] = + biotin (biotin:avidin molar ratio 3:1)
[9] = without biotin, difference in Tm compared to wt avidin

Row | Substance | ΔTm [1] [°C] | ΔH of unfolding ([1]; previously published (Gonzalez 1999)) [kJ/mol] | DSC Tm (+biotin) [1] [°C] | DSC Tm(−biotin) [1] | Kd [2] [nM] | original signal after heat treatment of coated particles [3] [%] | biotin-binding activity after heat treatment [4] | ΔTm [5, 7] [°C] | Tm [5, 8] [°C] | Tm ([5]; without biotin) [°C] | ΔTm [5, 9] [°C] | Kd [6] [nM]
1 | Streptavidin: Bacterial streptavidin (SEQ ID NO 2), literature values [reference compound] | 36.7 | 629.0 | 112.2 | 75.5 °C | – | – | – | – | – | – | – | –
2 | Avd-ci: Avidin mutant I117C with two intermonomeric disulphide bridges (subunits 1-3 and 2-4) | 26.1 | – | 124.7 ± 0.5 | 98.6 °C and 98.6 ± 0.1 °C | 85 | 35 | remained active, in the sense of binding biotin, longer than the wild-type avidin | 6.5 | 124.7 ± 0.5 | 98.6 ± 0.1 | 13.1 | 190
3 | Avd-nc: Cysteineless avidin mutant C4A, C83Y; intramonomeric disulphide bridges removed | 42.1 | – | 118.5 ± 0.1 | 76.4 ± 0.4 °C | 190 | – | – | 0.3 | 118.5 ± 0.1 | 76.4 ± 0.4 | – | 25
4 | Avd-cci: Avidin mutant D86C, I106C with four intermonomeric disulphide bridges (1-4 and 2-3) | 43.1 | – | 117.5 ± 0.1 | 74.4 ± 0.1 °C | 94 | – | – | −0.7 | 117.5 ± 0.1 | 74.4 ± 0.1 | −11.1 | 94
